Experimental data from paper PMC4051121.

Target: GltPh-K55C-A364C cross-linked with mercury (Pyrococcus horikoshii) (UniProt O59010)
Assay: crystal structure; GltPh^in crystals grown at 4°C in 14–20% PEG 400, 0.1 M potassium citrate pH 5.0–6.0, with lipids and n-decyl-α-D-maltopyranoside; soaked in Tl+ or alkali-free solutions; trimer with three protomers

In the case of “GltPh-K55C-A364C cross-linked with mercury (from UniProt O59010 1-425) (natural protein)”, the stoichiometry N was 3.
